According to article PMC4526114, “Structure and vascular function of MEKK3–cerebral cavernous malformations 2 complex” (Nature Communications, 2015):

T1: MEKK3^NPB1 (human, UniProt Q99759 1-124)
T1 construct: MEKK3 (MAP3K3), human, residues 1–124 (N-terminal helix and PB1 domain); also called N terminus of MEKK3; 6 × His–MEKK3^NPB1 (before cleavage); not shown: His6, N-terminal, cleaved
T1 sequence: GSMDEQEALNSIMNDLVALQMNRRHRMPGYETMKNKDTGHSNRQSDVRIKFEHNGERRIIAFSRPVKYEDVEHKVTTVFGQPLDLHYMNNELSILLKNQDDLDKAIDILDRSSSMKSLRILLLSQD


What was measured:
Settings in all cases: both partners purified
CCM2^FL = molecular target: T2, CCM2^FL (human, UniProt Q9BSQ5 1-438); test: pull-down; GST fusions of MEKK3 immobilised on glutathione Sepharose-4B beads; 5 μl bead slurry and 60 μg purified CCM2 in 500 μl, 4 °C, 2 h; 150 mM NaCl, 50 mM Tris pH 7.5, 0.1% Triton-X100; Coomassie-stained SDS–PAGE of washed beads
T2 construct: CCM2, human, residues 1–438; also called full-length CCM2; CCM2^FL: 1–438; source: purified; not shown: His tag, N-terminal, cleaved
T2 sequence (Q9BSQ5 other isoform, or with tags, fused parts or gaps): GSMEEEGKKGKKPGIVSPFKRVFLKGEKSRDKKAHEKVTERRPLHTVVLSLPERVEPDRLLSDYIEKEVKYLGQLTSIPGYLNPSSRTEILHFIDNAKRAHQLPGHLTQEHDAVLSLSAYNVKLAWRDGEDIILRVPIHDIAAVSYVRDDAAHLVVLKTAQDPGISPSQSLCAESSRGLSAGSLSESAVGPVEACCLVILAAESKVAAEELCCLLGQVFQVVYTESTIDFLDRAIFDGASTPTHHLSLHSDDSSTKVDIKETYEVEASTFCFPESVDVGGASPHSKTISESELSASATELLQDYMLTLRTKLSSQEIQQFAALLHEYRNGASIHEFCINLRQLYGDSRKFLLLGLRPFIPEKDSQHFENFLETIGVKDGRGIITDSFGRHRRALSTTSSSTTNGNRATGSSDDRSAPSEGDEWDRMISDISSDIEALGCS

MEKK3^NPB1 [1] = molecular target: T1, MEKK3^NPB1; test: ITC; CCM2^HHD injected into MEKK3^NPB1 in 20 2.5-μl injections at 25 °C; 150 mM NaCl, 50 mM HEPES pH 7.5; nano-ITC; 'observed Kd'
MEKK3^NPB1 [2] = molecular target: T1, MEKK3^NPB1; test: SEC-MALS; CCM2^HHD:MEKK3^NPB1 complex used for crystallization, 100 μl of 1.5 mg ml^-1 in 150 mM NaCl, 20 mM Tris pH 8.0, 0.02% sodium azide

Binder	binding result (CCM2^FL)	Kd (MEKK3^NPB1 [1]) [nM]	stoichiometry N (MEKK3^NPB1 [2])
GST–MEKK3^NPB1 (domain or fragment, human, UniProt Q99759 1-124, looked up, MEKK3 (MAP3K3), human, residues 1–124 (N-terminal helix and PB1 domain); GST-pCDF vector; also called GST–MEKK3^NPB1: 1–124) MDEQEALNSIMNDLVALQMNRRHRMPGYETMKNKDTGHSNRQSDVRIKFEHNGERRIIAFSRPVKYEDVEHKVTTVFGQPLDLHYMNNELSILLKNQDDLDKAIDILDRSSSMKSLRILLLSQD	binds	–	–
CCM2^HHD (domain or fragment, human, CCM2, human, residues 283–379 (harmonin homology domain); also called CCM2 harmonin homology domain; CCM2^HHD: 283–379; source: E. coli Rosetta (DE3), purified (HisTrap, TEV cleavage, size exclusion); not shown: His6, N-terminal, cleaved) GSSKTISESELSASATELLQDYMLTLRTKLSSQEIQQFAALLHEYRNGASIHEFCINLRQLYGDSRKFLLLGLRPFIPEKDSQHFENFLETIGVKDGRG	–	1400 ± 400	1
